B1: His10 − MBP − KIF1C(714–809) (domain or fragment, UniProt O43896 714-809, looked up)
chain: PSSGKRRAPRRVYQIPQRRRLQGKDPRWATMADLKMQAVKEICYEVALADFRHGRAEIEALAALKMRELCRTYGKPDGPGDAWRAVARDVWDTVGE
notes: Tag kept, as named in the legends and methods of the native gel, ITC and SEC experiments; also called KIF1C_(H3BD); source: E. coli BL21(DE3) RIL, purified (Ni-NTA, size-exclusion chromatography); not shown: His10, N-terminal, kept; MBP, N-terminal, kept

Data set [1] addresses T1, His10 − MBP−Hook3(553–718) (UniProt Q86VS8 553-718).
T1 construct: source: E. coli BL21(DE3) RIL, purified (Ni-NTA, size-exclusion chromatography); not shown: His10, N-terminal, kept; MBP, N-terminal, kept
T1 sequence (looked up): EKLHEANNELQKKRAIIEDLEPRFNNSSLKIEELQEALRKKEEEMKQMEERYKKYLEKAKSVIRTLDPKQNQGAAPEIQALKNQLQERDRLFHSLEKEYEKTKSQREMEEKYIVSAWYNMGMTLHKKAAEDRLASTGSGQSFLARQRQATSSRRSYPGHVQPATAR
As to the kind of experiment: native gel or EMSA; His10−MBP-tagged recombinant proteins alone or mixed (10 µM; molar ratio 1:1), incubated 16 h at 4 °C, 10% native gel, 120 V for 2 h on ice, Coomassie staining. The following applies: both partners purified.

For data set [2], the target named is T2, His10 − MBP − PTPN21(19–308) (UniProt Q16825 19-308).
T2 construct: Tagged form used in native gels and ITC; also called PTPN21_(FERM); FERM domain of PTPN21; source: E. coli BL21(DE3) RIL, purified (Ni-NTA, size-exclusion chromatography); not shown: His10, N-terminal, kept; MBP, N-terminal, kept
T2 sequence (looked up): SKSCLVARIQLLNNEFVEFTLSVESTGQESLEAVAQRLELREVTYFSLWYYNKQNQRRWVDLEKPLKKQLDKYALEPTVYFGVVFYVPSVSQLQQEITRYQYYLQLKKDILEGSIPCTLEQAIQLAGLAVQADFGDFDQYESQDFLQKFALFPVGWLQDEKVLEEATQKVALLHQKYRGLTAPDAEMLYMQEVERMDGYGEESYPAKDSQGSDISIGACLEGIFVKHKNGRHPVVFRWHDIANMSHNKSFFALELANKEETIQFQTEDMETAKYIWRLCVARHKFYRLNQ
As to the kind of experiment: ITC; 0.8 mM His10−MBP−Hook3(553–624) or His10−MBP−PTPN21(19–308) titrated into 0.04 mM His10−MBP−KIF1C(714–809); 25 °C; 50 mM Tris-HCl pH 7.5, 500 mM NaCl, 3 mM β-mercaptoethanol; MicroCal VP-ITC. The following applies: both partners purified. Background: ITC needs no label: the signal is the heat of the interaction.

Data set [3] concerns the target B1. The description is as above. The following applies: both partners purified.
Data set [4] concerns the molecule itself. As to the kind of experiment: crystal structure; Hook3(553–624) − KIF1C(714–809) complex, 30 mg/mL, sitting drop at 4 °C, 0.1 M sodium citrate/citric acid pH 5.5, 20% PEG 4000, 20% isopropanol; 3.0 Å.
The target in data set [5] is T3, full-length KIF1C(WT)−Flag−EGFP (UniProt O43896 1-1103).
T3 sequence (looked up): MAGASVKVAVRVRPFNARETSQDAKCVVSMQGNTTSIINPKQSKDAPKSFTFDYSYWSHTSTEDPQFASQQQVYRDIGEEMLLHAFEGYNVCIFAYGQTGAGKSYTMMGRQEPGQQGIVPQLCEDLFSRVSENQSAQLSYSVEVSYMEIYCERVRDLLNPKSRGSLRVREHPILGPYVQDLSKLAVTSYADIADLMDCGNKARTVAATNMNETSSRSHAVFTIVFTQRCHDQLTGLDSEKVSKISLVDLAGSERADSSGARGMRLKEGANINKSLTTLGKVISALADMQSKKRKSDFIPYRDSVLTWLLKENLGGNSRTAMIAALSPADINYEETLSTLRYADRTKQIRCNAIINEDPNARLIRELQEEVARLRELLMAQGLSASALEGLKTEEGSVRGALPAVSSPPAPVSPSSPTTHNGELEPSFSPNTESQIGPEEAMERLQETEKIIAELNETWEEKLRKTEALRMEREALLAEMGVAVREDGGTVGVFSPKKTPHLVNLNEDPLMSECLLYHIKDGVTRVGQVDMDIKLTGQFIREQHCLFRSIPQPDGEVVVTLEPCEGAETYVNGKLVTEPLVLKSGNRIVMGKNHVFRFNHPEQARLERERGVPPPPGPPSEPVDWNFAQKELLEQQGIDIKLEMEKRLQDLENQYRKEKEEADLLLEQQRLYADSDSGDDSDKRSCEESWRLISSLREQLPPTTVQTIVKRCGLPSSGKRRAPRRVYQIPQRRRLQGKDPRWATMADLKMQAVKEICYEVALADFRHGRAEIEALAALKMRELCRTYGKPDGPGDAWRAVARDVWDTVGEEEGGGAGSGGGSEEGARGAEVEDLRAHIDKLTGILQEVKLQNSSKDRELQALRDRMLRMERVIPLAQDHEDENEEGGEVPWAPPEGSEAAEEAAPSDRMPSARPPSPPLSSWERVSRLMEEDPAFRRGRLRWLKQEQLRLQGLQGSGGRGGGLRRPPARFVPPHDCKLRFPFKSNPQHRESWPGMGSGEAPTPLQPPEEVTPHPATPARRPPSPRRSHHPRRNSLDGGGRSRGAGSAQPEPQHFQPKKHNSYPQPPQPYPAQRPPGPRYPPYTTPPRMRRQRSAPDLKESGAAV
As to the kind of experiment: cell-based or functional assay.

For orientation: Kd means the constant that tells how readily two partners part at equilibrium. Low readings indicate higher affinity, high ones lower affinity. For orientation: stoichiometry N means a count of units in the complex or per binding partner.

Regarding B1, in data set [1], the binding result is “binds”. Besides, the Kd in data set [2] was 5.15 µM.

B2: His10 − MBP−Hook3(553–624) (domain or fragment, UniProt Q86VS8 553-624, looked up)
chain: EKLHEANNELQKKRAIIEDLEPRFNNSSLKIEELQEALRKKEEEMKQMEERYKKYLEKAKSVIRTLDPKQNQ
notes: Tagged form used in native gels and ITC; also called Hook3CC3; source: E. coli BL21(DE3) RIL, purified (Ni-NTA, size-exclusion chromatography); not shown: His10, N-terminal, kept; MBP, N-terminal, kept
As to B2, in data set [3], the affinity, expressed as Kd, was 1.58 µM.

B3: Hook3(553–624) (domain or fragment, UniProt Q86VS8 553-624, looked up)
chain: EKLHEANNELQKKRAIIEDLEPRFNNSSLKIEELQEALRKKEEEMKQMEERYKKYLEKAKSVIRTLDPKQNQ
notes: Untagged form used in the SEC replacement analysis and in the crystals; parallel coiled-coil homodimer in both crystal structures; A selenomethionine-substituted form was also made for the apo structure; also called Hook3CC3; source: E. coli BL21(DE3) RIL, purified (Ni-NTA, size-exclusion chromatography, tag removed with TEV protease); not shown: His10, N-terminal, cleaved; MBP, N-terminal, …
With B3, the “stoichiometry N” value in data set [4] came to 2.

B4: full-length Hook3(WT)−Myc−FuRed (natural protein, UniProt Q86VS8 1-718, looked up)
chain: MFSVESLERAELCESLLTWIQTFNVDAPCQTVEDLTNGVVMAQVLQKIDPAYFDENWLNRIKTEVGDNWRLKISNLKKILKGILDYNHEILGQQINDFTLPDVNLIGEHSDAAELGRMLQLILGCAVNCEQKQEYIQAIMMMEESVQHVVMTAIQELMSKESPVSAGNDAYVDLDRQLKKTTEELNEALSAKEEIAQRCHELDMQVAALQEEKSSLLAENQVLMERLNQSDSIEDPNSPAGRRHLQLQTQLEQLQEETFRLEAAKDDYRIRCEELEKEISELRQQNDELTTLADEAQSLKDEIDVLRHSSDKVSKLEGQVESYKKKLEDLGDLRRQVKLLEEKNTMYMQNTVSLEEELRKANAARSQLETYKRQVVELQNRLSEESKKADKLDFEYKRLKEKVDSLQKEKDRLRTERDSLKETIEELRCVQAQEGQLTTQGLMPLGSQESSDSLAAEIVTPEIREKLIRLQHENKMLKLNQEGSDNEKIALLQSLLDDANLRKNELETENRLVNQRLLEVQSQVEELQKSLQDQGSKAEDSVLLKKKLEEHLEKLHEANNELQKKRAIIEDLEPRFNNSSLKIEELQEALRKKEEEMKQMEERYKKYLEKAKSVIRTLDPKQNQGAAPEIQALKNQLQERDRLFHSLEKEYEKTKSQREMEEKYIVSAWYNMGMTLHKKAAEDRLASTGSGQSFLARQRQATSSRRSYPGHVQPATAR
With B4, in data set [5], the “tail/cytoplasm ratio of Hook3−Myc−FuRed upon co-expression in RPE1 cells, 16 h post transfection” value amounted to 1.3 tail/cytoplasm ratio and the “tail/cytoplasm ratio of KIF1C−Flag−EGFP upon co-expression in RPE1 cells, 16 h post transfection” value was found to be 3.6 tail/cytoplasm ratio.

These data come from PMC12152161, “Molecular basis for assembly and activation of the Hook3 − KIF1C complex-dependent transport machinery” (EMBO Reports, 2025).
